These results are taken from patent US20170233472A1.

Assay [1] has as its target human ROR1 expressed on the surface of cancer cells (human) (UniProt Q01973). Description: FACS on HBL-2 cells (ROR1-expressing), isotype control, concentration not given; PE-A, Anti-EK Biotin.
Assay [2] has the same target. Description: FACS on PC-3 cells (ROR1-expressing), isotype control, concentration not given; PE-A, Anti-EK Biotin.

human ROR1 expressed on the surface of cancer cells (human), sequence (Q01973 30-937): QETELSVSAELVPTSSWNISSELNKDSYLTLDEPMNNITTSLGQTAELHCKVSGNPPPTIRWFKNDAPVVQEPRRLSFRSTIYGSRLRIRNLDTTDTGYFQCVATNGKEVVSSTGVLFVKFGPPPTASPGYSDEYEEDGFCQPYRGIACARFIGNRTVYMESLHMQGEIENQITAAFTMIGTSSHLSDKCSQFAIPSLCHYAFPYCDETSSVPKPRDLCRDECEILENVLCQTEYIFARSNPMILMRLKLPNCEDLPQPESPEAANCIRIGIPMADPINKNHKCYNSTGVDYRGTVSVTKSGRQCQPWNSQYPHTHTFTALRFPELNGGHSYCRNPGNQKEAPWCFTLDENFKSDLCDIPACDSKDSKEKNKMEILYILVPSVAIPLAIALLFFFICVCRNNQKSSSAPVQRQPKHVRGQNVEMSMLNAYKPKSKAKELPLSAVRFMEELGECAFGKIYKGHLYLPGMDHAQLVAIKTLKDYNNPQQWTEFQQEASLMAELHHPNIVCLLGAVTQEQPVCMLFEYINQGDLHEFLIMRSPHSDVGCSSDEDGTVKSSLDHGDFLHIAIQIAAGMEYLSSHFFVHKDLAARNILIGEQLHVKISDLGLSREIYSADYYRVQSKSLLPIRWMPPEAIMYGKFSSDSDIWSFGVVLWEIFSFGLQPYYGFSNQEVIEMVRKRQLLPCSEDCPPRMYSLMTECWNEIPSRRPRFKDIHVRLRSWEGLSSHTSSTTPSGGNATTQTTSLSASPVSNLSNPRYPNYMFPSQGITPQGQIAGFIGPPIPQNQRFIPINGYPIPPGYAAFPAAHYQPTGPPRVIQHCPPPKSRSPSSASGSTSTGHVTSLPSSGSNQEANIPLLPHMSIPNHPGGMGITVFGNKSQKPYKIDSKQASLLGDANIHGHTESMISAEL

Isotype Control: the Mean: PE-A stood at 13.8 in assay [1] and 85.2 in assay [2].
